Our source for the protein stability index values is the supplement of paper PMC10567573.

First the molecules themselves.
B1: KLHDC10 (parent)
chain: CPIIRIPNRFLRGHRPPPARSGHR
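Further: lentivirally expressed fusions sorted by FACS into six bins by GFP to DsRed ratio, PSI derived from sequencing read proportions per bin multiplied by bin number.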

The variants in this series derive from B1. The series is described as follows: protein stability index of a GFP-peptide fusion (GPS, HEK-293T) (PSI 1-6); higher = more stable. As to conditions: c terminus: a fixed tail appended.
Turning to CPHIRIPNRFLRGHRPPPARSGHR, the protein stability index was 2.16. For CPEIRIPNRFLRGHRPPPARSGHR the value was 3.25; for CPLIRIPNRFLRGHRPPPARSGHR, 2.15. Regarding CPTIRIPNRFLRGHRPPPARSGHR, the protein stability index was found to be 2.36. For CPSIRIPNRFLRGHRPPPARSGHR the value was 2.56. For CPRIRIPNRFLRGHRPPPARSGHR the value was 2.62; for CPCIRIPNRFLRGHRPPPARSGHR, 1.78. For CPPIRIPNRFLRGHRPPPARSGHR the value was 4.2; for CPYIRIPNRFLRGHRPPPARSGHR, 1.6.

As for CPFIRIPNRFLRGHRPPPARSGHR, the protein stability index worked out at 1.47. CPDIRIPNRFLRGHRPPPARSGHR: the protein stability index stood at 2.16. Take CPVIRIPNRFLRGHRPPPARSGHR: the protein stability index amounted to 1.71. For CPMIRIPNRFLRGHRPPPARSGHR the value was 2.09.

Consider CPKIRIPNRFLRGHRPPPARSGHR, for which the protein stability index was 2.81.

On to CPAIRIPNRFLRGHRPPPARSGHR, for which the protein stability index was 1.56. For CPNIRIPNRFLRGHRPPPARSGHR the value was 3.74; for CPIIRNPNRFLRGHRPPPARSGHR, 4.01. The value for CPIIRCPNRFLRGHRPPPARSGHR was 2.4.

For CPIIREPNRFLRGHRPPPARSGHR, the protein stability index was 3.98.

CPIIRKPNRFLRGHRPPPARSGHR: the protein stability index was found to be 3.37. The value for CPIIRQPNRFLRGHRPPPARSGHR was 2.77. The value for CPIIRLPNRFLRGHRPPPARSGHR was 4.07; that for CPIIRGPNRFLRGHRPPPARSGHR was 3.96; that for CPIIRPPNRFLRGHRPPPARSGHR was 4.35. With CPIIRYPNRFLRGHRPPPARSGHR, the protein stability index was 4.09. The value for CPIIRFPNRFLRGHRPPPARSGHR was 4.26; that for CPIIRHPNRFLRGHRPPPARSGHR was 4.75. The value for CPIIRVPNRFLRGHRPPPARSGHR was 2.77; that for CPIIRAPNRFLRGHRPPPARSGHR was 3.29. Consider CPIIRWPNRFLRGHRPPPARSGHR, for which the protein stability index amounted to 4.13. The value for CPIIRRPNRFLRGHRPPPARSGHR was 3.69; that for CPIIRSPNRFLRGHRPPPARSGHR was 2.04; that for CPIIRDPNRFLRGHRPPPARSGHR was 4.25. The value for CPIIRMPNRFLRGHRPPPARSGHR was 2.64. The value for CPILRIPNRFLRGHRPPPARSGHR was 2.4. In the case of CPIQRIPNRFLRGHRPPPARSGHR, the protein stability index amounted to 3.94. The value for CPICRIPNRFLRGHRPPPARSGHR was 2.31; that for CPIWRIPNRFLRGHRPPPARSGHR was 3.12; that for CPIPRIPNRFLRGHRPPPARSGHR was 4.21. For CPIRRIPNRFLRGHRPPPARSGHR the value was 4.37; for CPITRIPNRFLRGHRPPPARSGHR, 3.23. For CPIVRIPNRFLRGHRPPPARSGHR the value was 2.42; for CPIMRIPNRFLRGHRPPPARSGHR, 1.86. Take CPIKRIPNRFLRGHRPPPARSGHR: the protein stability index was 3.06. On to CPIDRIPNRFLRGHRPPPARSGHR, for which the protein stability index was determined as 4.49. For CPIERIPNRFLRGHRPPPARSGHR the value was 4.56.

In the case of CPIYRIPNRFLRGHRPPPARSGHR, the protein stability index turned out to be 3.02.

Turning to CPISRIPNRFLRGHRPPPARSGHR, the protein stability index worked out at 3.22. The value for CPIARIPNRFLRGHRPPPARSGHR was 2.7; that for CPIFRIPNRFLRGHRPPPARSGHR was 2.46.

On to CPIGRIPNRFLRGHRPPPARSGHR, for which the protein stability index came to 3.77. The value for CPINRIPNRFLRGHRPPPARSGHR was 4.38; that for CGIIRIPNRFLRGHRPPPARSGHR was 2.41; that for CAIIRIPNRFLRGHRPPPARSGHR was 3.75.

On to CIIIRIPNRFLRGHRPPPARSGHR, for which the protein stability index was determined as 2.6.

Take CDIIRIPNRFLRGHRPPPARSGHR: the protein stability index came to 2.32. For CSIIRIPNRFLRGHRPPPARSGHR the value was 1.31; for CPIIKIPNRFLRGHRPPPARSGHR, 3.59. For CPIIEIPNRFLRGHRPPPARSGHR the value was 5.03; for CPIIDIPNRFLRGHRPPPARSGHR, 4.21; for CPIIHIPNRFLRGHRPPPARSGHR, 3.85. For CPIIQIPNRFLRGHRPPPARSGHR the value was 3.54; for CPIIVIPNRFLRGHRPPPARSGHR, 2.6. In the case of CPIIYIPNRFLRGHRPPPARSGHR, the protein stability index is 2.51.

In the case of CPIIIIPNRFLRGHRPPPARSGHR, the protein stability index amounted to 2.81. For CPIIGIPNRFLRGHRPPPARSGHR the value was 3.42; for CPIINIPNRFLRGHRPPPARSGHR, 4.4. The value for CPIIWIPNRFLRGHRPPPARSGHR was 2.73; that for CPIILIPNRFLRGHRPPPARSGHR was 1.55; that for CPIITIPNRFLRGHRPPPARSGHR was 3.81.

On to CPIIPIPNRFLRGHRPPPARSGHR, for which the protein stability index was 3.89. On to CPIIFIPNRFLRGHRPPPARSGHR, for which the protein stability index came to 2.62. The value for CPIIAIPNRFLRGHRPPPARSGHR was 3.57. The value for CPIIMIPNRFLRGHRPPPARSGHR was 1.6; that for YPIIRIPNRFLRGHRPPPARSGHR was 1.97. The value for IPIIRIPNRFLRGHRPPPARSGHR was 3.59; that for SPIIRIPNRFLRGHRPPPARSGHR was 3.41. Take DPIIRIPNRFLRGHRPPPARSGHR: the protein stability index came out at 2.89. For HPIIRIPNRFLRGHRPPPARSGHR the value was 2.91; for WPIIRIPNRFLRGHRPPPARSGHR, 1.59.

As for LPIIRIPNRFLRGHRPPPARSGHR, the protein stability index stood at 2.68.

As to RPIIRIPNRFLRGHRPPPARSGHR, the protein stability index was found to be 3.57.

Turning to PPIIRIPNRFLRGHRPPPARSGHR, the protein stability index is 3.87. For the variant KPIIRIPNRFLRGHRPPPARSGHR, the protein stability index is 3.56. For TPIIRIPNRFLRGHRPPPARSGHR, the protein stability index was 3.29.

Regarding NPIIRIPNRFLRGHRPPPARSGHR, the protein stability index turned out to be 3.73.

With QPIIRIPNRFLRGHRPPPARSGHR, the protein stability index is 4.42. For FPIIRIPNRFLRGHRPPPARSGHR the value was 2.15. The value for EPIIRIPNRFLRGHRPPPARSGHR was 3.76; that for APIIRIPNRFLRGHRPPPARSGHR was 4.28. For MPIIRIPNRFLRGHRPPPARSGHR, the protein stability index was 3.21. The value for CPIIRICNRFLRGHRPPPARSGHR was 1.89. The value for CPIIRIDNRFLRGHRPPPARSGHR was 2.91. The value for CPIIRIANRFLRGHRPPPARSGHR was 2.38.
